Holding throughout (experiment): BLI
A general note: BLI is a label-free optical method that tracks binding on a fibre tip over time.

In assay [1] the target is truncated human ACE2 (residues 19-613 with a C-terminal AviTag and 6xHis-tag), biotinylated (human) (UniProt Q9BYF1).
The target of assay [2] is human ACE2 polymorphism S19P (rs73635825) (human) (UniProt Q9BYF1).
In assay [3] the target is human ACE2 polymorphism K26R (rs4646116) (human) (UniProt Q9BYF1).

The substance “SARS-CoV-2 RBD Gamma (P.1) (from UniProt P0DTC2) (domain or fragment)” returned a t1/2 in assay [1] of 3.58 min. The same measure, in the same setting: then “SARS-CoV-2 ancestral RBD recombinant protein (from UniProt P0DTC2) (domain or fragment)”, with 1.39 min; and “SARS-CoV-2 RBD Alpha (B.1.1.7), N501Y (from UniProt P0DTC2) (domain or fragment)”, with 5.49 min.

“SARS-CoV-2 RBD Beta (B.1.351) (from UniProt P0DTC2) (domain or fragment)” showed a t1/2 in assay [1] of 2.75 min. As usually defined, the Kd is the constant that tells how readily two partners part at equilibrium. Low readings indicate higher affinity, high ones lower affinity. In the case of “SARS-CoV-2 Omicron BA.2 RBD (from UniProt P0DTC2) (domain or fragment)”, in assay [1], the t1/2 stood at 2.7 min. The Kd in assay [2] worked out at 4.97 nM; in assay [3], 5.18 nM.
